What was measured:
[1] = biological target: Ubiquitin-IL-18 fusion (76 amino acid ubiquitin fused to the N-terminus of mature human IL-18)
[2] = biological target: Human precursor IL-18 expressed as an N-terminal hexa-histidine tagged fusion
[3] = biological target: Human precursor IL-18 (Pro-IL-18), co-expressed in E. coli from the bicistronic pET28 cassette

Protein	processing of Ub-IL-18 to mature IL-18 on co-expression in E. coli (Western blot) [1]	cleavage of prodomain, SDS-PAGE analysis [2]	cleavage to mature IL-18 on co-expression in E. coli [3]
Ubiquitin protease 1 (Ubp-1), full-length (protein) MDLFIESKINSLLQFLFGSRQDFLRNFKTWSNNNNNLSIYLLIFGIVVFFYKKPDHLNYIVESVSEMTTNFRNNNSLSRWLPRSKFTHLDEEILKRGGFIAGLVNDGNTCFMNSVLQSLASSRELMEFLDNNVIRTYEEIEQNEHNEEGNGQESAQDEATHKKNTRKGGKVYGKHKKKLNRKSSSKEDEEKSQEPDITFSVALRDLLSALNAKYYRDKPYFKTNSLLKAMSKSPRKNILLGYDQEDAQEFFQNILAELESNVKSLNTEKLDTTPVAKSELPDDALVGQLNLGEVGTVYIPTEQIDPNSILHDKSIQNFTPFKLMTPLDGITAERIGCLQCGENGGIRYSVFSGLSLNLPNENIGSTLKLSQLLSDWSKPEIIEGVECNRCALTAAHSHLFGQLKEFEKKPEGSIPEKLINAVKDRVHQIEEVLAKPVIDDEDYKKLHTANMVRKCSKSKQILISRPPPLLSIHINRSVFDPRTYMIRKNNSKVLFKSRLNLAPWCCDINEINLDARLPMSKKEKAAQQDSSEDENIGGEYYTKLHERFEQEFEDSEEEKEYDDAEGNYASHYNHTKDISNYDPLNGEVDGVTSDDEDEYIEETDALGNTIKKRIIEHSDVENENVKDNEELQEIDNVSLDEPKINVEDQLETSSDEEDVIPAPPINYARSFSTVPATPLTYSLRSVIVHYGTHNYGHYIAFRKYRGCWWRISDETVYVVDEAEVLSTPGVFMLFYEYDFDEETGKMKDDLEAIQSNNEEDDEKEQEQKGVQEPKESQEQGEGEEQEEGQEQMKFERTEDHRDISGKDVN	efficient processing of Ub-IL-18 to mature active IL-18	–	–
6-his tagged N-terminally truncated caspase 4 (protein) MGHHHHHHGALKLCPHEEFLRLCKERAEEIYPIKERNNRTRLALIICNTEFDHLPPRNGADFDITGMKELLEGLDYSVDVEENLTARDMESALRAFATRPEHKSSDSTFLVLMSHGILEGICGTVHDEKKPDVLLYDTIFQIFNNRNCLSLKDKPKVIIVQACRGANRGELWVRDSPTSLEVASSQSSENLEEDAVYKTHVEKDFIAFCSSTPHNVSWRDSTMGSIFITQLITCFQKYSWCCHLEEVFRKVQQSFETPRAKAQMPTIERLSMTRYFYLFPGN	–	The cleavage reaction of prodomain was completed >90 % according to SDS-PAGE analysis	Cleavage to mature IL-18 with caspase-4 is complete by 4 hours at 37 °C or by 18 hours at 29 °C
6-his tagged N-terminally truncated caspase 5 (protein) MGHHHHHHGILKLCPREEFLRLCKKNHDEIYPIKKREDRRRLALIICNTKFDHLPARNGAHYDIVGMKRLLQGLGYTVVDEKNLTARDMESVLRAFAARPEHKSSDSTFLVLMSHGILEGICGTAHKKKKPDVLLYDTIFQIFNNRNCLSLKDKPKVIIVQACRGEKHGELWVRDSPASLAVISSQSSENLEADSVCKIHEEKDFIAFCSSTPHNVSWRDRTRGSIFITELITCFQKYSCCCHLMEIFRKVQKSFEVPQAKAQMPTIERATLTRDFYLFPGN	–	The cleavage reaction of prodomain was completed >90 % according to SDS-PAGE analysis	cleavage to mature EL-18 with caspase-5 is complete by 18 hours at 29 °C

Source: patent US20030143198
